Experimental findings from paper PMC7105484, “Crystal structures of REF6 and its complex with DNA reveal diverse recognition mechanisms” (Cell Discovery, 2020) are described below.

Where a chain is given by its changes, count along the chain named. Names and notes keep the numbering of the source.

The target of one series is T1, REF6 N1276F (Arabidopsis thaliana, UniProt Q9STM3 1223-1360, N1276F).
T1 sequence: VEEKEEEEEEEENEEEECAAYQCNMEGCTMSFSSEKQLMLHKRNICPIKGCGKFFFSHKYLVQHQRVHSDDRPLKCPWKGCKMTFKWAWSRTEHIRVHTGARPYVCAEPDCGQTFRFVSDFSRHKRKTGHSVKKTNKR
The series is described as follows: MST; MST: 20 mM HEPES pH 7.3, 150 mM NaCl, 0.2 mM TCEP, 0.5% CA-630, 25 C; EMSA: 30 uM protein, 10 uM dsDNA, 20 mM Tris pH 8.0, 100 mM NaCl, 2.5 mM MgCl2, 0.1% CA-630, 10% glycerol, 1 uM ZnSO4, 1 mM DTT, 4 C. The following applies: protein: recombinant; tags: His6-MBP or GST, TEV-cleavable; label: FAM in MST. On the technique in general: A gel shift assay detects complexes by their altered migration in electrophoresis.

In series [1] the target is T2, REF6 ZnF1-4 WT (Arabidopsis thaliana, UniProt Q9STM3 1223-1360).
T2 sequence: T1 sequence with F54N
Kind of series: MST; Hill coefficient 1.9; MST: 20 mM HEPES pH 7.3, 150 mM NaCl, 0.2 mM TCEP, 0.5% CA-630, 25 C; EMSA: 30 uM protein, 10 uM dsDNA, 20 mM Tris pH 8.0, 100 mM NaCl, 2.5 mM MgCl2, 0.1% CA-630, 10% glycerol, 1 uM ZnSO4, 1 mM DTT, 4 C. As to conditions: protein: recombinant; tags: His6-MBP or GST tag, TEV-cleavable (cleaved when necessary); label: FAM in MST.

Series [2] has as its target T2, REF6 ZnF1-4 WT. Kind of series: EMSA; MST: 20 mM HEPES pH 7.3, 150 mM NaCl, 0.2 mM TCEP, 0.5% CA-630, 25 C; EMSA: 30 uM protein, 10 uM dsDNA, 20 mM Tris pH 8.0, 100 mM NaCl, 2.5 mM MgCl2, 0.1% CA-630, 10% glycerol, 1 uM ZnSO4, 1 mM DTT, 4 C. As to conditions: protein: recombinant, tags: His6-MBP or GST tag, TEV-cleavable (cleaved when necessary).
Series [3] deals with the molecule itself. Kind of series: SEC; analytical gel filtration, Superdex 200 10/300 GL, 5.0 mg mL^−1, no DNA; 20 mM HEPES pH 7.3, 500 mM NaCl, 2 mM β-mercaptoethanol. In general terms: Size exclusion chromatography separates by hydrodynamic size, large species first.
For series [4], the target named is T2, REF6 ZnF1-4 WT. The series is described as follows: MST; MST: 20 mM HEPES pH 7.3, 150 mM NaCl, 0.2 mM TCEP, 0.5% CA-630, 25 C; EMSA: 30 uM protein, 10 uM dsDNA, 20 mM Tris pH 8.0, 100 mM NaCl, 2.5 mM MgCl2, 0.1% CA-630, 10% glycerol, 1 uM ZnSO4, 1 mM DTT, 4 C. The following applies: protein: recombinant, tags: His6-MBP or GST tag, TEV-cleavable (cleaved when necessary).

B1: CUC1-3+4 (dsDNA)
DNA 1: TCTAAAACAGAGTCCTCCTTACTCTGTTTGTAA
DNA 2: TTACAAACAGAGTAAGGAGGACTCTGTTTTAGA
Consider B1, for which the binding signal in the series with REF6 N1276F was 2.5 fold lower affinity than WT; with REF6 ZnF1-4 WT [1], 5 fold higher affinity than CUC1-3 (13-fold than CUC1-4).

B2: CUC2-4 (dsDNA)
DNA 1: TCCCTCTGTGCACGC
DNA 2: GCGTGCACAGAGGGA
For B2, the binding result with REF6 ZnF1-4 WT [2] (label: FAM in MST) is recorded as “binds”.

B3: CUC2-2 (dsDNA)
DNA 1: TCTCTCTGTCTTTTC
DNA 2: GAAAAGACAGAGAGA
Take B3: the binding result in the series with REF6 ZnF1-4 WT [2] is “binds”.

B4: CUC2-3 (dsDNA)
DNA 1: TAGCTCTGATAAAAT
DNA 2: ATTTTATCAGAGCTA
Take B4: in the series with REF6 ZnF1-4 WT [2], the binding result is given as “binds”.

B5: CUC1-6 (dsDNA)
DNA 1: TTGCTCTGTTCGTTC
DNA 2: GAACGAACAGAGCAA
B5: the binding result with REF6 ZnF1-4 WT [2] is listed as “binds”.

B6: REF6 fragment 1139–1360 (domain or fragment, Arabidopsis thaliana, UniProt Q9STM3 1139-1360, looked up)
chain: RSTAKRIAKTKTVQSSRDTKGRFLQEFASGKKNEELDSYMEGPSTRLRVRHQKPSRGSLETKPKKIGKKRSGNASFSRVATEKDVEEKEEEEEEEENEEEECAAYQCNMEGCTMSFSSEKQLMLHKRNICPIKGCGKNFFSHKYLVQHQRVHSDDRPLKCPWKGCKMTFKWAWSRTEHIRVHTGARPYVCAEPDCGQTFRFVSDFSRHKRKTGHSVKKTNKR
notes: source: E. coli BL21 (DE3), purified
As for B6, the “stoichiometry N” value in series [3] was 2.

B7: CUC1-1 (dsDNA)
DNA 1: TTCCTCTGTTCTTAT
DNA 2: ATAAGAACAGAGGAA
On to B7, for which, in the series with REF6 ZnF1-4 WT [2] (label: FAM in MST), the binding result is listed as “binds”.

B8: CUC2-1 (dsDNA)
DNA 1: TTGCTCTGTTAGTTC
DNA 2: GAACTAACAGAGCAA
B8: the binding result with REF6 ZnF1-4 WT [2] is recorded as “binds”.

B9: REF6 fragment 1175–1360 (domain or fragment, Arabidopsis thaliana, UniProt Q9STM3 1175-1360, looked up)
chain: DSYMEGPSTRLRVRHQKPSRGSLETKPKKIGKKRSGNASFSRVATEKDVEEKEEEEEEEENEEEECAAYQCNMEGCTMSFSSEKQLMLHKRNICPIKGCGKNFFSHKYLVQHQRVHSDDRPLKCPWKGCKMTFKWAWSRTEHIRVHTGARPYVCAEPDCGQTFRFVSDFSRHKRKTGHSVKKTNKR
notes: as for B6
In the case of B9, the “stoichiometry N” value in series [3] came out at 2.

B10: CUC1-4 (dsDNA)
DNA 1: TTACTCTGTTTGTAA
DNA 2: TTACAAACAGAGTAA
In the case of B10, in the series with REF6 ZnF1-4 WT [4] (label: FAM in MST), the dissociation constant Kd came out at 2.6 µM.

B11: CUC1-3 (dsDNA)
DNA 1: GGACTCTGTTTTAGA
DNA 2: TCTAAAACAGAGTCC
Take B11: the Kd with REF6 ZnF1-4 WT [4] (label: FAM in MST) came to 1 µM.

B12: m12 (G9A) (dsDNA)
DNA 1: CTTTCTCTATTTTGTC
DNA 2: GGACAAAATAGAGAAA
As for B12, the dissociation constant Kd in the series with REF6 ZnF1-4 WT [4] (label: FAM, 5' overhang 1 nt on both strands (as m5)) came to 4.5 µM.

B13: m5-m9'C (dsDNA)
DNA 1: CTTTCTCTGTTTTGTC
DNA 2: GGACAAAACAGAGAAA
modifications: methylcytosine at position 9 of strand 2 (9'C)
For the molecule B13, in the series with REF6 ZnF1-4 WT [4] (label: FAM in MST, 5' overhang 1 nt on both strands (as m5)), the Kd turned out to be 5.9 µM.

B14: CUC1-2 (dsDNA)
DNA 1: AGACTCTGTTTCAGA
DNA 2: TCTGAAACAGAGTCT
In the case of B14, the binding result in the series with REF6 ZnF1-4 WT [2] is recorded as “binds”.

B15: CUC1-5 (dsDNA)
DNA 1: TTTCTCTGCTCAAAT
DNA 2: ATTTGAGCAGAGAAA
In the case of B15, the binding result with REF6 ZnF1-4 WT [2] (label: FAM in MST) is on record as “binds”.

B16: REF6 (residues 1223–1360) (domain or fragment, Arabidopsis thaliana, UniProt Q9STM3 1223-1360, looked up)
chain: T1 sequence with F54N
notes: The fusion tag was cleaved with TEV protease 'when necessary'
B16: the “stoichiometry N” value in series [3] stood at 2.

As usually defined, the stoichiometry N is a count of units in the complex or per binding partner. The Kd is the free concentration of one partner at which half of the binding sites on the other are occupied at equilibrium, for simple one-to-one binding.
